Laboratory results: patent US20080279856A1, “Inhibition of Bradykinin Release” (Novo Nordisk Pharmaceuticals, Inc., priority 1999, published 2008)

How the values were obtained:
Format in all cases: cell-based, human, bovine
[1] = tested on: EC monolayers (HUVEC or BAEC); experiment: Transendothelial electrical resistance (TEER) of EC monolayers after HBP stimulation
Protocol: (§1) Human umbilical vein endothelial cells (HUVEC) are isolated from fresh umbilical cords as described by Jaffe et al., 1973, J. Clin. Invest. 52:2745-2756), and bovine aorta endothelial cells (BAEC) are isolated according to the method of Booyse et al., 1975, Thromb. Diath. Haemmorrh. 24:825-839) with a few modifications. Briefly, the lumen of the umbilical vein or bovine aorta is incubated with a 0.25% collagenase solution for 10 min, and detached endothelial cells washed out with PBS. Harvested cells are pelleted and resuspended in culture medium, seeded in tissue culture flasks and incubated under standard conditions. Medium is changed every 48 h until cultures have reached confluence (3-5 days). HUVEC or BAEC in the first to fifth passages are used in the experiments. Identification and purity determination of ECs are based on cobblestone morphology and characterization by factor VIII/vWf antigen (Booyse et al., 1975, Thromb. Diath. Haemmorrh. 24:825-839). Staining for factor VIII/vWf factor is homogeneous in the cells.
(§2) Cultured EC are detached by brief (2 min) trypsin-EDTA treatment (0.25% trypsin/0.01% EDTA) and replated onto either 0.2 μm pore size Anopore inorganic membrane or 3.0 μm pore size polycarbonate filters (Tissue Culture inserts, 10 mm; NUNC, Roskilde, Denmark). […] The ECs are grown to confluent monolayers, as assessed by daily microscopic observation and measurement of the electrical resistance across the monolayer.
For measurement of electrical resistance across the EC monolayer, the filter insert is transferred to a resistance measurement chamber (ENDOHM-12; World Precision Instruments, Sarasota, Fla., USA) modified so as to assure exact positioning of the electrodes in relation to each other and to the filter insert during repeated measurements. […] Direct readings of the electrical resistance are given by an ohmmeter (EVOM; World Precision Instruments, Sarasota, Fla., USA) connected to the electrodes of the resistance chamber. […]

[2] = tested on: EC monolayers (HUVEC or BAEC); experiment: Albumin clearance (Evans blue dye-conjugated albumin) across EC monolayers after HBP stimulation; conditions: HBP 75 μg/ml; over a 60 min period
Protocol: as §1, with “HUVEC or BAEC in the first to fifth passages are used in the experiments. Identification and purity determination of ECs are based on cobblestone morphology and characterization by factor VIII/vWf antigen (Booyse et al., 1975, Thromb. Diath. Haemmorrh. 24:825-839). Staining for factor VIII/vWf factor is homogeneous in the cells.” left out
as §2
Evans blue dye-conjugated albumin (EBA) is used as a marker for macromolecular permeability of the EC monolayers. […] In experiments where albumin permeability is analyzed, the culture medium in the upper compartment is exchanged for medium containing EBA. […]

EC monolayers = experiment: F-actin distribution in EC (FITC-phalloidin staining); conditions: HBP 75 μg/ml, 15 min
Protocol: For analysis of F-actin distribution in EC in response to stimulation with HBP, confluent EC monolayers grown on Biomatrix coated coverslips are incubated with HBP or vehicle alone at 37° C. for 15 min. The monolayers are washed twice in culture medium and fixed in 3.7% formaldehyde in PBS for 10 min at room temperature. EC are permeabilized with 0.2% Triton® X-100 in PBS (1 min at 4° C.), washed twice and stained for actin filaments with FITC-conjugated phalloidin for 20 min at 37° C. The endothelial cells are again washed three times in PBS and viewed in a laser scanning confocal microscope.

B1: HBP: Native human heparin-binding protein, mature form with the amino acid sequence SEQ ID NO:1 (protein, listed as Homo sapiens)
chain: IVGGRKARPRQFPFLASIQNQGRHFCGGALIHARFVMTAASCFQSQNPGVSTVVLGAYDLRRRERQSRQTFSISSMSENGYDPQQNLNDLMLLQLDREANLTSSVTILPLPLQNATVEAGTRCQVAGWGSQRSGGRLSRFPRFVNVTVTPEDQCRPNNVCTGVLTRRGGICNGDGGTPLVCEGLAHGVASFSLGPCGRGPDFFTRVALFRDWIDGVLNNPGPGPA
onset of decrease in transendothelial resistance ([1]; HBP 75 μg/ml to upper compartment): within one min | decrease in transendothelial resistance, maximum ([1]; HBP 75 μg/ml to upper compartment, after 15 min): 30%±3% | dose dependence of EC responses (TEER) ([1]; HBP 25, 50 and 75 μg/ml): clearly dose-dependent | net albumin clearance volume [2]: 20.4 ± 3.4 µL | F-actin content and distribution (EC monolayers): substantial changes in F-actin content and distribution
